Results as given in patent US20220409711A1 (published 2022).

Target: T1, Hormad1 peptide on HLA-A*02:01 (human)
T1 peptide: YLDDLCVKI
Test: multimer staining

B1: Hormad1 CTL A12 TCR (TRAV4*01 F, TRBV13*01 F) (TCR, V domains shown)
Valpha: LAKTTQPISMDSYEGQEVNITCSHNNIATNDYITWYQQFPSQGPRFIIQGYKTKVTNEVASLFIPADRKSSTLSLPRVSLSDTAVYYCLVGARGTALIFGKGTTLSVSS
Vbeta: AAGVIQSPRHLIKEKRETATLKCYPIPRHDTVYWYQQGPGQDPQFLISFYEKMQSDKGSIPDRFSAQQFSDYHSELNMSSLELGDSALYFCASSPTGQGSYEQYFGPGTRLTVT
B1: recognises.
